Test results reported in US20250304927A1, “PRO-PEPTIDE VARIANTS FOR MODULATING ACTIVITY OF TRANSGLUTAMINASES” (CURIE CO. INC., priority 2022, published 2025).

B1: SEQ ID NO: 3: thermostable variant of Streptomyces mobaraensis transglutaminase (protein)
chain: MDPDDRVTPPAEPLDRMPDPYRPSYGRAETVVNNYIRKWQQVYSHRDGRKQQMTEEQREWLSYGCVGVTWVNSGQYPTNRLAFASFDEDRFKNELKNGRPRSGETRAEFEGRVAKESFDEEKGFQRAREVASVMNRALENAHDESAYLDNLKKELANGNDALRNEDARSPFYSALRNTPSFKERNGGNHDPSRMKAVIYSKHFWSGQDRSSSADKRKYGDPDAFRPAPGTGLVDMSRDRNIPRSPTSPGEGFVNFDYGWFGAQTEADADKTVWTHGNHYHAPNGSLGAMHVYESKFRNWSEGYSDFDRGAYVITFIPKSWNTAPDKVKQGWP
B2: SEQ ID NO: 4 (protein)
chain: MDNGAGEETKSYAETYRLTADDVLNINAETYRLTADDVRNINALNESAPAASSAGPSFRAP

What was measured:
E. coli ATCC 8739 = assay: MIC determination of bacterial cultures (OD600); format: cell-based; conditions: E. coli ATCC 8739, Mueller Hinton broth
Protocol: E. coli ATCC 8739 and C. albicans ATCC 10231 were acquired from the American Type Culture Collection (ATCC) (Manassas, VA) and maintained as −80° C. frozen glycerol stocks.
For Minimum Inhibitor Concentration (MIC) determination of bacterial cultures, E. coli ATCC 8739 was grown overnight (16-18 hours) in Mueller Hinton broth at 37° C. The following day, the cell density of the saturated cultures was calculated using OD600 and cultures were diluted to 10^4 to 10^6 CFU/mL in sterile Mueller Hinton broth to generate the inoculum, and 100 μL of the inoculum was combined with 100 μL of serially diluted transglutaminase variant at a range of 0.0001-0.05 weight percent. Growth curves were measured by OD600 on a BioTek® Synergy Plate Reader. All test conditions were performed in triplicate. MIC was determined to be 50 ppm (0.005% w/v) against E. coli for the enzyme described in SEQ ID NO: 5 using OD600.

[1] = molecular target: T1, thermostable mature transglutaminase variant (SEQ ID NO: 3) (Streptomyces mobaraensis, UniProt P81453); assay: pH-responsiveness screen: casein/dansylcadaverine assay at pH 6.0 and pH 8.0 in the presence of pro-peptide variants (Method A); format: biochemical; conditions: casein assay
T1 construct: made in house; host or cells: E. coli (lysate)
Excerpt: (§1) Method A. A bicistronic expression vector encoding the wild-type pro-domain of transglutaminase (SEQ ID NO: 2) and a thermostable mature transglutaminase variant (SEQ ID NO: 3) as separate polypeptides was cloned as described in PCT/US20/49226 (WO2021/178001 A1). The vector was used as a template for synthesis of a random mutagenesis library targeting the pro-domain coding sequence to create pro-domain peptide variants.
Method A. Plasmid libraries containing mature transglutaminase and variant pro-domain peptides were plated on Luria-Bertani (LB) agar plates containing 50 μg/mL of kanamycin. […]
(§2) A secondary screen was performed to determine initial rate of transglutaminase in the presence of the pro-peptide variants using transglutaminase-catalyzed labeling of casein with dansylcadaverine (e.g., a commercially available kit such as the Transglutaminase Fluorogenic Activity Assay Kit, T036, Zedira, Germany). Transglutaminase activity was monitored by measuring the fluorescence (excitation wavelength 332 nm; emission wavelength 500 nm) using a BioTek Synergy H1 microplate reader. Transglutaminase-catalyzed covalent coupling (crosslinking) of monodansylcadaverine with N,N-dimethylcasein produces a product that causes a shift in intensity and wavelength of fluorescence of the dansyl group now linked to the casein. […]

[2] = molecular target: T1, thermostable mature transglutaminase variant (SEQ ID NO: 3); format: biochemical; conditions: casein assay; Method A
Excerpt: as §1
Method A. Plasmid libraries containing mature transglutaminase and variant pro-domain peptides were plated on Luria-Bertani (LB) agar plates containing 50 μg/mL of kanamycin. After incubation for at least 16 hours at 37° C., colonies were picked and inoculated into 1 mL of LB broth with 50 μg/mL kanamycin in one well of a 96 deep well culture plate. The plate was covered with a breathable seal and incubated overnight at 37° C. with 400 rpm of shaking. 10 μL of the seed culture was used to inoculate 1 mL of media in a 96 deep well culture plate for expression. The expression plate was allowed to grow for 6-8 hours at 30° C. Expression was then induced by adding isopropyl beta-D-1-thiogalactopyranoside (IPTG) to a final concentration of 1 mM and the temperature was reduced to 20° C. while growth continued for an additional 15 hours. Cells were harvested by centrifugation at 4000 rcf for 30 minutes and pellets were frozen at −80° C.
as §2, with “casein. The relative transglutaminase activity is shown by increase of fluorescence intensity over time. The data were normalized for transglutaminase expression levels in E. coli lysate as described above. Pro-domain variants were identified based on their ability to alter the activity of the mature transglutaminase enzyme.” for “casein.”
It is believed that these pro-peptide variants have reduced binding affinity with mature mTgase.

Molecule | MIC (E. coli ATCC 8739) | activity at pH 6.0 relative to pH 8.0 compared to the wild-type pro-peptide [1] | transglutaminase activity relative to the wild-type pro-peptide [2]
B1 | outside the range of detection |  | 
B2 |  | increase in activity at pH 6.0 relative to pH 8.0 compared to the wild-type pro-peptide | decrease in transglutaminase activity relative to the wild-type pro-peptide
